Results from the domain aggregation screens of Martell et al. (2025).

Test: soluble fraction after stress (log2 fold change); higher = more stays soluble; pooled small domains, quantitative proteomics
Conditions: stress: 50 degC
Outline: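 Pooled custom libraries of small protein domains were each held under stress at 50°C. The read-out, high-throughput quantitative proteomics, tracked how much of each protein stayed soluble. This is reported as a base-two log fold change used to indicate aggregation propensity. Higher values mean more protein remains in solution.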

Row | Sequence | soluble fraction (log2)
1 | HMGGSVYTVQKGDTLWSIAKEQLGSPLRYAEIYDLNKDVIEEAARGRGKKDSSNGHWLVVGTSLQIPEAT | 0.42
2 | HMKYSQAMIAQIIKHFHLPNNTVVTGEDVDAILLRSVDGGDGIYGGDVVSIWKYYKKQNDIQEIVT | -0.645
3 | HMDVPTEEAILAYNNVPIELAAKFIGWSDITIRYALQEERAPFGMAAQNPKTGTWSYNISPGLLLKYKSGE | -2.11
4 | HMGGQEEALNRLVLRELLGTLEKKERDLIVRRYFYDQTQTKIAEALGISQVQVSRMEKRILKKMREGF | -0.914
5 | HMIAANMTISQRIAAALAEYGVMSVKDIAQEVLGATDKKDTEKIRVTLTRDHGKRFRTYSDGTWSLKDWRP | -1.12
6 | HMKREETLKALATKNANYVARSGRRYSFEPMNPYERRIIHTAVQEIEGVTSRSIGSGMDRRVLIEPEGGV | -0.194
7 | HMPSEDELAERLRGAIRQGDILNEGRMPPERALAEHFGVSRARLRLALGLLQEDGTIYRRHGQGTFAT | -0.132
8 | HMKDHLRFEILSFAGDLRNGVVKTRQEFETIFAFYDKYEEIITALKVHNGYVDSEFDFIKEKFKELKSK | -1.92
9 | HMKVMTNAELGRIIKEARIARRMTQSEVVGDFITRNMLSQIENGNAAPSMRTLQYLMDVLDIHINIE | -2.58
10 | HMAKTGMDALVGRRVVLTKAIAGEGEGLVAVDGDVWRATSPAGSAIPKGTEVRITGYRSIVLEVEPI | -0.184
11 | HMVLGDQTFQSASAPKVFFGGDAAYGPKNIITAVAHGHDAAVSIDRFLHGEDVSKRPGPQVNLVS | 0.144
12 | HMTTLEGIEKYLGSGMIRGIGPAYAGRLTKVFGEAVFDVIEQSPERLREVEGIGPKRVSRIVSGWAEQ | -0.264
13 | HMIKLSEAEWKVMKLLWEESPKTMMQITNLLKETTGWTKHTVMTFLKRMEEKKAIHYEEGGRAKLYYP | -0.589
14 | HMSEPQEISYSDFIEQVNRNEIRQVEFDGQHEYLTVIRKDTSRFKVIIPAPDPRLLDDLMEHDVEIVGKE | 0.0895
15 | HMTYYEGYYRKNQKGFGFVIVDGRDEDIYIDAKNMNGALNNDLVVVEELKGQNGKKTEGRVVKVLKKE | -0.185
16 | HMQSREISYSEFVTAVEAGDVRNVTLDGEQVRFRRADGSDYVTIRPEDAEVTKLLMANDIPVRAEP | 0.169
17 | HMDFDFHALGREIKRKRKDKGWTQEYLAQLLDRTPRSIMYMENRGQHPSLNILFKIATLLEISIDQFFF | 0.194
18 | HMTLQEFYARVGGDYNATLSRLPSEALVKKFILKYPGDPSFAQLKDALAAQDWELAFRASHTLKGVAQN | -1.3
19 | HMDFTMSEIQTAMAALPRGYRTVVQLYLVDGYSHKEIAEMLGVDVNTSKSQLSRGRKQLQAFLAAMS | -0.674
20 | HMSFSTHHEYYIYNLAVDMRKGYDGLSGLVVNELGRQPWDGSVYVFFNTMRDKVKLLVWDTDGYVIYSKR | 0.279
21 | HMPIRVGDAFESLAGVFPDEYNKALRKSTKKPVFFVPVKVEAGSGALRQKGKITFIVKDGRIDAIQIAL | -1.21
22 | HMISIKEAVFPFSRFPGVDTLLGPEMKSTGEVMGLADNFGHAYAKSQIASGSKLPESGTLFVSVKNSD | -0.309
23 | HMTPVTYELTVQSGAGQRIDKYLSEQLADLTRSYLQKLLKDGGVTVNGKTVKSNYKLSENDQIFLEVPDA | 0.0372
24 | HMIENPGQTFERIAGKITRTLRTGPLRIQQLDLLFSESGEQVMDVLRAMAENGEILIKDDTIQWNGHN | -0.0388
25 | HMDAIDPKTVTSWADLWKPEYKSSLLLTDDAREVFQMALRKLGYSGNTTDPKEIEAAYNELKKLMPNVAAF | -0.0387
26 | HMTGSLLVEVQGRPDADRLLGQALVDAGLTARPAGGALIEVEVRDETTPDVVRDLTVDLGLGLVRMQERH | -0.702
27 | HMYDDEELDVLAHRPIESYTDAELAMLREVAETLLETDYEGWLKSLSMRGILLPPEILQLVT | -0.049
28 | HMETVPMIDLRGMTQEQAEKAIVGLGLTVGTVDHSSSDMPAGQVWFQSVEPKDEVAPGTKVNIIISTGS | -0.000277

Row | Sequence | soluble fraction (log2)
29 | HMGPDALSIGRRVRQVRTARGMTLDELAAAVSRAPSQLSMIETGKREPKLSLLQAIARALGTTIDALLT | -0.176
30 | HMKPMNNNDILRRLRYTFDLSDDKMMETFALGGYEANRSEISDWLKKDDHPEQKSLYDKSLSHFLNGFIV | -0.202
31 | HMVDIVLDILKIVAEKQPGNQFSQSILMQYQERGGLSKKQLEGLYGKAKRIPEIPQNKLATLEAIILR | -1.41
32 | HMTIFGWQQDETGKWYRNADGTFYENGWKEIDGAQYYFDENGYVTTGWLELDGKDYYFDEEGKYDSTKVR | -0.46
33 | HMSEYILATNDGEFLRITSYSKEEGGMLVWEKTSSIVSAEHKVIPYSQIINIKDRNGDVVWDKD | -0.346
34 | HMNSHLEEGRHGLQIGDPGIVRARIESDPEGETDMPVVVIDGRNISWNEFGRMVATYTGFQFKLEM | -0.515
35 | HMTTRLLTPRQRQVFDIAIREGFYDSPRRISLTELADLLGVAKSTLSVQLQRVESTIVHTFSEEIRRRS | -2.57
36 | HMDAVQAGKRVLIVDDLIATGGTAKAATDLIEKAGGTVVGFSFVMRLDGLDGLDKLDGKPSSSLIAMP | 0.237
37 | HMLFYSDLVRLISFAEATLGKNEFETWYMSHHQGMKYTEIAIALGISVRTVEDRIARTKNHFRKI | -0.494
38 | HMFEDEPSEREIRISTLLAAFLKQEDGGTAVSRERFLKENSDVAEDLQILLEMADMIQEMAGP | -0.418
39 | HMGIDSSVYVEARYELGHLYLKQKKYAAAYASFKEILDMYASTTPGVLPGAYNKLAEIGMKRIPKNKL | -2.74
40 | HMRGVNEISYTTLISEVSGGNVRDVVISGDEITGTFNDGSRFHSFSPDDPQFIERLNDQGVIINVKPL | -0.0829
41 | HMRQMIIIMQKQAAASSVAAVVEFIRSKGLREHISPGAERTIIGAVGDERVFLPQELESLPQVERAIRVL | -1.14
42 | HMDDMVLEIGPGIGTMTQYLAEAAGKVVAVEIDRNLLPILQETLADYDNVKVIHADVLSLDLEKLVQEE | -0.000883
43 | HMGPEAFPVPYIVDIELDRAIYVIEQSGFIVGQKLEANDDNVPRGFVISQNPAAGTKLGPNSVVDLVISSG | -1.02
44 | HMQKPELLAPAGSLEKAKTAFKYGADAVYMGTSNLSLRSRVTVDDDELIKTIEYAHSINKKVYAALNIYAR | 0.00596
45 | HMKTDFEIDITVKASSLRVVASPGGDELVGTVTRGDRVTQLATPKDGWILIKMTDGRLGYVPESLLLFP | -0.0577
46 | HMSPLPDRESLGAIEKLISLLGSSEWTVREKATRELGAFGYLARPVLQRELATSGDPEVSRRLERILSNL | -0.332
47 | HMSDRQLKRQANILYTTRKLASKVGYDGLTMRGLAEASEVSPKTLYNLFSSKDELLAAALEDLVGIV | 0.282
48 | HMAMYSREKLKKLREDRGLTQYELAKIAGISVVTLNKIESSDSAKPFVKTLNKIAQALGVGIDELS | -0.127
49 | HMVNINEVEVSRDLAHAKVFVTFVGDRTDEINTQALKVLNAAQGFLRSRIASNNHMRTTPRIHF | -0.663
50 | HMGTVIGMGRITAGGVNFRETEGGGVIEKLERDTLVEVLTVPSVIDTTHWYQVRYNNRTGYVQAPFVQLLG | -0.0951
51 | HMKTLDAFFDQARDAYKKLKKDGDIDNLKVLRNQLQTVRETQGDAVRKKSKEEYRRLVDIIDDIDGLLAAF | -0.102
52 | HMQVTDADFDQIRLAVLSQLKQNSLTVAELLKIIPFKEQKVMPVIRFLIDNRVLEHGTDMKLTVGNSVK | 0.0195
53 | HMLVSFGDHLKRYIYERAGIEEPFGEVPQEIYRDIAVDSFRETYTPKSMNPTSTKLPALVNNWLIQ | -0.746
54 | HMVTEKPLYRDELMDHDTVWVEPISMDSHLRMELRGWYHVKNRFVENEVGQRFYFDFYDIKWLAFTNGP | -2.08
55 | HMNVGKRLKSLREKYKFSLEEVAKKIKSSAGAISRYENNERKINSESLIRLSNLYNVSPEYILYG | 0.0449
